Experiments:
[1] = target: human GLP-1 receptor (GLP1R) stably expressed on PathHunter cells (human, UniProt P43220 24-463); assay: cell-based or functional assay
[2] = target: T1, PTH1 receptor expressed on mammalian cells (UniProt Q03431 27-593, limits assumed); assay: cell-based or functional assay
T1 sequence (looked up): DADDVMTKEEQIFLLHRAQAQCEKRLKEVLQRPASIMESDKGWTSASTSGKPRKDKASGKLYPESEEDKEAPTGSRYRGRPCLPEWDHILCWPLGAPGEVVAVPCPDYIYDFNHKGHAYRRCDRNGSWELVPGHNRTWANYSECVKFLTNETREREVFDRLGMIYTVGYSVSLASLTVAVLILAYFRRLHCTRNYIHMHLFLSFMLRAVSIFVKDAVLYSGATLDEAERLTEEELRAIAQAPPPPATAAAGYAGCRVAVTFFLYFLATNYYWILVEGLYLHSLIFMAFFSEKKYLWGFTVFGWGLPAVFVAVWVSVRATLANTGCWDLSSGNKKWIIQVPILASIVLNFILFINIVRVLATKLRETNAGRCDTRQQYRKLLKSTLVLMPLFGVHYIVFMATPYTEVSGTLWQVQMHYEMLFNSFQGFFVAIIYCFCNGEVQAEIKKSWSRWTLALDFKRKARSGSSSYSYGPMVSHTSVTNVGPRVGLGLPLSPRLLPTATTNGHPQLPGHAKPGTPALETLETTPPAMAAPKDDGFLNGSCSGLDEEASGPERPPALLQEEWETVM

Binder | EC50, recruitment of beta-Arrestin [1] [nM] | Calcium EC50 [2] [nM] | cAMP EC50 [2] [nM]
HAEGTFTSDVSSYLEGQAAKEFIAWLVKGRGC (C-terminal cysteine thiol conjugated to VitD-(25)-PEG2K-maleimide carrier) [GLP-1-C-PEG2K-(25)-VitD] | 510 | – | –
HAEGTFTSDVSSYLEGQAAKEFIAWLVKGRGC (C-terminal cysteine thiol conjugated to VitD-(3)-PEG2K-maleimide carrier) [GLP-1-C-PEG2K-(3)-VitD] | 520 | – | –
SVSEIQLMHNLGKHLNSMERVEWLRKKLQDVHNFC (C-terminal cysteine thiol conjugated to VitD-(3)-PEG2K-maleimide carrier) [PTH-C-PEG2K-(3)-VitD] | – | 14 | 0.0186
